The values that follow come from publication PMC10325903, “Prediction of cooperative homeodomain DNA binding sites from high-throughput-SELEX data”.

The target in one data set is MSX1 HD fragment (UniProt P28360 131-258). Put plainly: EMSA; EMSA, 34 nM IRDye700 probe, room temperature 20 min, 4% polyacrylamide gel 150 V 2 h; binding buffer as in cited ref 35 (not given). Conditions: protein: recombinant; tags: N-terminal 6xHis (pET-14b or pET-14P; may be cleaved); label: 5' IRDye700 on bottom strand; blunt.
Sequence of MSX1 HD fragment (P28360 131-258): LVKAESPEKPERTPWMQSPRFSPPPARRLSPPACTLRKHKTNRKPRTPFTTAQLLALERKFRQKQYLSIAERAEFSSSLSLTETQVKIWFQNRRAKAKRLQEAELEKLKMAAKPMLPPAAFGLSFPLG
For another data set, the target named is Dlx2 HD fragment (UniProt P40764 137-229). Nature of the data set: EMSA; 20 and 80 nM protein; monomer; EMSA, 34 nM IRDye700 probe, room temperature 20 min, 4% polyacrylamide gel 150 V 2 h; binding buffer as in cited ref 35 (not given). Conditions: protein: recombinant; tags: N-terminal 6xHis (pET-14b or pET-14P; may be cleaved); label: 5' IRDye700 on bottom strand; blunt.
Sequence of Dlx2 HD fragment (P40764 137-229): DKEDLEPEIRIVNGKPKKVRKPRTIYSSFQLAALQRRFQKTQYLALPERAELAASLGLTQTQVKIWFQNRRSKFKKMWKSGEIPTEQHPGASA

The target of a further data set is Gsx2 HD fragment (UniProt P31316 167-305). Put plainly: EMSA; 100 and 400 nM protein; EMSA, 34 nM IRDye700 probe, room temperature 20 min, 4% polyacrylamide gel 150 V 2 h; binding buffer as in cited ref 35 (not given). Conditions: protein: recombinant; tags: N-terminal 6xHis (pET-14b or pET-14P; may be cleaved); chain copies: 2; label: 5' IRDye700 on bottom strand; blunt. On the technique in general: In EMSA bound probe runs differently from free probe, usually more slowly.
Sequence of Gsx2 HD fragment (P31316 167-305): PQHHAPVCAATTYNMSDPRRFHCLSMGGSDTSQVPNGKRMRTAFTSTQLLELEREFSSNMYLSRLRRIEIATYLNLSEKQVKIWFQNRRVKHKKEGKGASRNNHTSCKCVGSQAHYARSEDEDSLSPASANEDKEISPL

The target in the next data set is Alx1 (Cart1) HD fragment (UniProt Q8C8B0 105-220). Nature of the data set: EMSA; EMSA, 34 nM IRDye700 probe, room temperature 20 min, 4% polyacrylamide gel 150 V 2 h; binding buffer as in cited ref 35 (not given). Conditions: protein: recombinant; tags: N-terminal 6xHis (pET-14b or pET-14P; may be cleaved); chain copies: 2; label: 5' IRDye700 on bottom strand; blunt.
Sequence of Alx1 (Cart1) HD fragment (Q8C8B0 105-220): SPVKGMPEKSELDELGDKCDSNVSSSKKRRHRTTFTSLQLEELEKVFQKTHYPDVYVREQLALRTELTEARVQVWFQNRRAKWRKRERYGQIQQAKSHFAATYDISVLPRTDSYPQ

The target in the next data set is Gsx1 HD fragment (UniProt P31315 127-261). The description is as above. As to conditions: protein: recombinant; tags: N-terminal 6xHis (pET-14b or pET-14P; may be cleaved); chain copies: 2; label: 5' IRDye700 on bottom strand; blunt.
Sequence of Gsx1 HD fragment (P31315 127-261): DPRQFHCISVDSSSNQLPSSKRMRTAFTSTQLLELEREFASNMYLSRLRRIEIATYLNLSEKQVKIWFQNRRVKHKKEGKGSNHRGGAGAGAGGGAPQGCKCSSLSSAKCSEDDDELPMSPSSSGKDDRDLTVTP
For a further data set, the target named is T1, Barx1 HD fragment (UniProt Q9ER42 95-221).
T1 sequence: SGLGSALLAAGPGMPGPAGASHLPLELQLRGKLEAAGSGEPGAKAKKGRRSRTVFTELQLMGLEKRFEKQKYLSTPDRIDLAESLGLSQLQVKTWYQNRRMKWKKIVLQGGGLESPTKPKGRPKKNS
Described as above. As to conditions: protein: recombinant; tags: N-terminal 6xHis (pET-14b or pET-14P; may be cleaved); chain copies: 2; label: 5' IRDye700 on bottom strand; blunt.

A further data set has as its target T2, En1 HD fragment (UniProt P09065 282-401).
T2 sequence: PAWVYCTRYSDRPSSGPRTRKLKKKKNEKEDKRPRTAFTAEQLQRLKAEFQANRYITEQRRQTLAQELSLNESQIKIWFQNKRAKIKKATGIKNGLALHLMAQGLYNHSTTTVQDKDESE
The description is as above. Conditions: protein: recombinant; tags: N-terminal 6xHis (pET-14b or pET-14P; may be cleaved); label: 5' IRDye700 on bottom strand; blunt.

Another data set has as its target Barhl2 HD fragment (UniProt Q8VIB5 190-316). Described as above. Conditions: protein: recombinant; tags: N-terminal 6xHis (pET-14b or pET-14P; may be cleaved); label: 5' IRDye700 on bottom strand; blunt.
In a further data set the target is HESX1 HD fragment (UniProt Q9UBX0 65-185). The data set is described as above. Conditions: protein: recombinant; tags: N-terminal 6xHis (pET-14b or pET-14P; may be cleaved); label: 5' IRDye700 on bottom strand; blunt.
Sequence of HESX1 HD fragment (Q9UBX0 65-185): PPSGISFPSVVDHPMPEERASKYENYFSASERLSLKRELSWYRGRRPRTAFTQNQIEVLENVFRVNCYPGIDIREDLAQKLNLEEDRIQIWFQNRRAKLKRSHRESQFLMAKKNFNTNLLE
The target in a further data set is T3, VENTX HD fragment (UniProt O95231 69-178).
T3 sequence: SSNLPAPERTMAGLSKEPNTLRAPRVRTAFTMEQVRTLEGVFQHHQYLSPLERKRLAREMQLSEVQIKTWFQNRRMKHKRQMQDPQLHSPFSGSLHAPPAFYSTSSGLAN
Described as above. As to conditions: protein: recombinant; tags: N-terminal 6xHis (pET-14b or pET-14P; may be cleaved); chain copies: 2; label: 5' IRDye700 on bottom strand; blunt.

The next data set has as its target Alx4 HD fragment (UniProt O35137 157-291). Described as above. Conditions: protein: recombinant; tags: N-terminal 6xHis (pET-14b or pET-14P; may be cleaved); chain copies: 2; label: 5' IRDye700 on bottom strand; blunt.
The next data set has as its target Msx2 HD fragment (UniProt Q03358 99-227). Described as above. Conditions: protein: recombinant; tags: N-terminal 6xHis (pET-14b or pET-14P; may be cleaved); chain copies: 2; label: 5' IRDye700 on bottom strand; blunt.
For the next data set, the target named is Arx HD fragment (UniProt O35085 292-420). Described as above. Conditions: protein: recombinant; tags: N-terminal 6xHis (pET-14b or pET-14P; may be cleaved); chain copies: 2; label: 5' IRDye700 on bottom strand; blunt.
Sequence of Arx HD fragment (O35085 292-420): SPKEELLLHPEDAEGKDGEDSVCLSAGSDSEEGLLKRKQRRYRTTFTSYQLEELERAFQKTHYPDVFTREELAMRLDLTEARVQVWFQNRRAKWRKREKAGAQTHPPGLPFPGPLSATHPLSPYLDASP

Sequence of Msx2 HD fragment (Q03358 99-227): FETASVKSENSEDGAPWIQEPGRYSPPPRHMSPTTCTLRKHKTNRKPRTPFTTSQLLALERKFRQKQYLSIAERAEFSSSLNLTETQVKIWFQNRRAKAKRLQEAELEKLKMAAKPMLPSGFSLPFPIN
Sequence of Alx4 HD fragment (O35137 157-291): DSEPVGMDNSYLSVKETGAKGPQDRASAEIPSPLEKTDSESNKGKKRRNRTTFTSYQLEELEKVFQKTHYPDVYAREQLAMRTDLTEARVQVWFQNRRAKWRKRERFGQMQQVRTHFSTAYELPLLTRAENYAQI
Sequence of Barhl2 HD fragment (Q8VIB5 190-316): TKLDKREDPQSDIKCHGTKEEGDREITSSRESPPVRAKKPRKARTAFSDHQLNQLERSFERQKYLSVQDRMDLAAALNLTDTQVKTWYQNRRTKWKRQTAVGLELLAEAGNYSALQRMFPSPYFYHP

B1: MSX1_SELEX_1 (dsDNA)
DNA 1: TGCGAACAGAAGCCAATTAGTGCTAATTGGCCAATTAGCTAGTGCGGGCGTGGCT
DNA 2: AGCCACGCCCGCACTAGCTAATTGGCCAATTAGCACTAATTGGCTTCTGTTCGCA
B1: the “cooperativity factor (tau)” value in the data set with MSX1 HD fragment came out at 1.2 ± 0.1 Tau cooperativity factor.

B2: Dlx2_HOMER (dsDNA)
DNA 1: TTCATGGGTAATTAGGTGTTATTATAGTGCGGGCGTGGCT
DNA 2: AGCCACGCCCGCACTATAATAACACCTAATTACCCATGAA
In the case of B2, the binding result in the data set with Dlx2 HD fragment is listed as “binds”.

B3: Gsx2_SELEX_2 (dsDNA)
DNA 1: TCCAACAGTCATTAAACTCTCATTATCGTAGTGCGGGCGTGGCT
DNA 2: AGCCACGCCCGCACTACGATAATGAGAGTTTAATGACTGTTGGA
In the case of B3, the binding result in the data set with Gsx2 HD fragment is “binds”.

B4: Alx1_SELEX_2 (dsDNA)
DNA 1: TGCGCCTAATTAGATTAACCTGAACAGATAGTGCGGGCGTGGCT
DNA 2: AGCCACGCCCGCACTATCTGTTCAGGTTAATCTAATTAGGCGCA
As for B4, the “cooperativity factor (tau)” value with Alx1 (Cart1) HD fragment came to 126 ± 27.2 Tau cooperativity factor.

B5: Dlx2_SELEX_2 (dsDNA)
DNA 1: TTCATGCAATTACTGCTAATTGCCACTATAGTGCGGGCGTGGCT
DNA 2: AGCCACGCCCGCACTATAGTGGCAATTAGCAGTAATTGCATGAA
For B5, the binding result with Dlx2 HD fragment is on record as “binds”.

B6: Gsx1_HOMER+1 (dsDNA)
DNA 1: TCACACTTAATTACTGAATTAATTACGTAGTGCGGGCGTGGCT
DNA 2: AGCCACGCCCGCACTACGTAATTAATTCAGTAATTAAGTGTGA
As to B6, the “cooperativity factor (tau)” value with Gsx1 HD fragment worked out at 2.9 ± 0.9 Tau cooperativity factor.

B7: MSX1_SELEX_1+1 (dsDNA)
DNA 1: TGCGAACAGAAGCCAATTAGTGGCTAATTGGCCAATTAGCTAGTGCGGGCGTGGCT
DNA 2: AGCCACGCCCGCACTAGCTAATTGGCCAATTAGCCACTAATTGGCTTCTGTTCGCA
B7: the “cooperativity factor (tau)” value with MSX1 HD fragment came out at 1.2 ± 0.2 Tau cooperativity factor.

B8: Barx1_SELEX_2 (dsDNA)
DNA 1: TATTCGAAACAATTAAATAACGATTACTGTAGTGCGGGCGTGGCT
DNA 2: AGCCACGCCCGCACTACAGTAATCGTTATTTAATTGTTTCGAATA
As to B8, the “cooperativity factor (tau)” value in the data set with Barx1 HD fragment came to 4.4 ± 0.6 Tau cooperativity factor.

B9: Gsx2_SELEX_1 (dsDNA)
DNA 1: TCCAACAACAATTAAAAACATATTAACGTAGTGCGGGCGTGGCT
DNA 2: AGCCACGCCCGCACTACGTTAATATGTTTTTAATTGTTGTTGGA
In the case of B9, in the data set with Gsx2 HD fragment, the binding result was “binds”.

B10: En1_SELEX_2 (dsDNA)
DNA 1: TGTAGGATAATTGGGTAATTAGTGCAGATAGTGCGGGCGTGGCT
DNA 2: AGCCACGCCCGCACTATCTGCACTAATTACCCAATTATCCTACA
With B10, the “cooperativity factor (tau)” value with En1 HD fragment worked out at 0.1 ± 0.1 Tau cooperativity factor.

B11: Barhl2_SELEX_1+1 (dsDNA)
DNA 1: TATTGTTGCTAAACGGTGGCGTTTAGCGTGTAGTGCGGGCGTGGCT
DNA 2: AGCCACGCCCGCACTACACGCTAAACGCCACCGTTTAGCAACAATA
On to B11, for which, in the data set with Barhl2 HD fragment, the “cooperativity factor (tau)” value worked out at 6.4 ± 1.2 Tau cooperativity factor.

B12: HESX1_HOMER+1 (dsDNA)
DNA 1: TCTTCTCTAATTAGTGGCTAATTCTGTAGTGCGGGCGTGGCT
DNA 2: AGCCACGCCCGCACTACAGAATTAGCCACTAATTAGAGAAGA
On to B12, for which the “cooperativity factor (tau)” value with HESX1 HD fragment stood at 1.3 ± 1.8 Tau cooperativity factor.

B13: Gsx1_HOMER (dsDNA)
DNA 1: TCACACTTAATTACTAATTAATTACGTAGTGCGGGCGTGGCT
DNA 2: AGCCACGCCCGCACTACGTAATTAATTAGTAATTAAGTGTGA
Regarding B13, the “cooperativity factor (tau)” value with Gsx1 HD fragment is 48.7 ± 12.9 Tau cooperativity factor.

B14: VENTX_SELEX_1+1 (dsDNA)
DNA 1: TGAAGTTAAGCCTAATCGATAGAACGATTAGCGTTAGGAATAGTGCGGGCGTGGCT
DNA 2: AGCCACGCCCGCACTATTCCTAACGCTAATCGTTCTATCGATTAGGCTTAACTTCA
With B14, the “cooperativity factor (tau)” value with VENTX HD fragment worked out at 3.3 ± 3 Tau cooperativity factor.

B15: En1_SELEX_2+1 (dsDNA)
DNA 1: TGTAGGATAATTGGGGTAATTAGTGCAGATAGTGCGGGCGTGGCT
DNA 2: AGCCACGCCCGCACTATCTGCACTAATTACCCCAATTATCCTACA
With B15, in the data set with En1 HD fragment, the “cooperativity factor (tau)” value was 0.2 ± 0.1 Tau cooperativity factor.

B16: HESX1_HOMER (dsDNA)
DNA 1: TCTTCTCTAATTAGTGCTAATTCTGTAGTGCGGGCGTGGCT
DNA 2: AGCCACGCCCGCACTACAGAATTAGCACTAATTAGAGAAGA
With B16, the “cooperativity factor (tau)” value with HESX1 HD fragment is 1.7 ± 2 Tau cooperativity factor.

B17: Alx1_SELEX_2+1 (dsDNA)
DNA 1: TGCGCCTAATTAGGATTAACCTGAACAGATAGTGCGGGCGTGGCT
DNA 2: AGCCACGCCCGCACTATCTGTTCAGGTTAATCCTAATTAGGCGCA
For the molecule B17, the “cooperativity factor (tau)” value with Alx1 (Cart1) HD fragment was found to be 10.1 ± 9.7 Tau cooperativity factor.

B18: VENTX_SELEX_1 (dsDNA)
DNA 1: TGAAGTTAAGCCTAATCGATAAACGATTAGCGTTAGGAATAGTGCGGGCGTGGCT
DNA 2: AGCCACGCCCGCACTATTCCTAACGCTAATCGTTTATCGATTAGGCTTAACTTCA
Regarding B18, the “cooperativity factor (tau)” value with VENTX HD fragment was found to be 36.7 ± 3.9 Tau cooperativity factor.

B19: Alx4_SELEX_1 (dsDNA)
DNA 1: TGTGTCTTAATTAGATTAACGCACTTGATAGTGCGGGCGTGGCT
DNA 2: AGCCACGCCCGCACTATCAAGTGCGTTAATCTAATTAAGACACA
On to B19, for which, in the data set with Alx4 HD fragment, the “cooperativity factor (tau)” value was 167 ± 23.1 Tau cooperativity factor.

B20: Barhl2_SELEX_1 (dsDNA)
DNA 1: TATTGTTGCTAAACGGTGCGTTTAGCGTGTAGTGCGGGCGTGGCT
DNA 2: AGCCACGCCCGCACTACACGCTAAACGCACCGTTTAGCAACAATA
Turning to B20, in the data set with Barhl2 HD fragment, the “cooperativity factor (tau)” value worked out at 5.4 ± 0.58 Tau cooperativity factor.

B21: Alx4_SELEX_1+1 (dsDNA)
DNA 1: TGTGTCTTAATTAGGATTAACGCACTTGATAGTGCGGGCGTGGCT
DNA 2: AGCCACGCCCGCACTATCAAGTGCGTTAATCCTAATTAAGACACA
Turning to B21, the “cooperativity factor (tau)” value with Alx4 HD fragment stood at 1.1 ± 0.8 Tau cooperativity factor.

B22: Msx2_SELEX_2 (dsDNA)
DNA 1: TGCGGGGCAATTAAATACCAATTAGTGATAGTGCGGGCGTGGCT
DNA 2: AGCCACGCCCGCACTATCACTAATTGGTATTTAATTGCCCCGCA
Turning to B22, the “cooperativity factor (tau)” value in the data set with Msx2 HD fragment is 14 ± 2.6 Tau cooperativity factor.

B23: Arx_SELEX_1+1 (dsDNA)
DNA 1: TGCGTTGCTAATTGGAATTAGCACACGTGCTAGTGCGGGCGTGGCT
DNA 2: AGCCACGCCCGCACTAGCACGTGTGCTAATTCCAATTAGCAACGCA
With B23, the “cooperativity factor (tau)” value in the data set with Arx HD fragment stood at 36.4 ± 11.5 Tau cooperativity factor.

B24: Arx_SELEX_1 (dsDNA)
DNA 1: TGCGTTGCTAATTGAATTAGCACACGTGCTAGTGCGGGCGTGGCT
DNA 2: AGCCACGCCCGCACTAGCACGTGTGCTAATTCAATTAGCAACGCA
As to B24, the “cooperativity factor (tau)” value with Arx HD fragment amounted to 168 ± 50.7 Tau cooperativity factor.

B25: Msx2_SELEX_2+1 (dsDNA)
DNA 1: TGCGGGGCAATTAAATGACCAATTAGTGATAGTGCGGGCGTGGCT
DNA 2: AGCCACGCCCGCACTATCACTAATTGGTCATTTAATTGCCCCGCA
Take B25: the “cooperativity factor (tau)” value with Msx2 HD fragment stood at 2.1 ± 0.6 Tau cooperativity factor.
